Measured values from US20040018971A1 (published 2004).
Where two headings read alike, the source gives them in different places.

Assays:
HLA-A*3101 = HLA-A*3101 (human); test: competition with 125I-labelled standard peptide for purified HLA; gel filtration
HLA-A*1101 = HLA-A*1101 (human); test: as above
HLA-A*6801 = HLA-A*6801 (human); test: as above
HLA-A*0301 [1] = target: HLA-A*0301 (human); test: as above
HLA-A*3301 = HLA-A*3301 (human); test: as above
HLA-A*0201 [2] = target: T1, HLA-A*0201 (human); test: inhibition of 125I-labeled probe peptide binding to purified HLA, gel filtration; relative to standard peptide
T1 construct: the construct is not described; also called HLA-A2.1

HLA-DRB1*0301 [3] = target: T2, HLA-DRB1*0301 (human); test: competition with 125I-labelled standard peptide, purified HLA-DR, gel filtration
T2 construct: purified MHC class II molecule; also called DR3

HLA-DRB1*0701 [4] = target: T3, HLA-DRB1*0701 (human); test: competition with 125I probe peptide, purified HLA
T3 construct: also called DR7

HLA-A*0301 [5] = target: T4, HLA-A*0301 (human); test: inhibition of 125I-labelled probe peptide binding to purified HLA-A*0301, gel filtration; ratio to standard peptide 941.12 [..] (11 nM); the negative sign is not explained
T4 construct: also called HLA-A3

HLA-A*6802 = target: T5, HLA-A*6802 (human); test: competition for purified HLA vs 125I-labelled probe peptide, gel filtration
T5 construct: purified HLA class I molecule

HLA-A*0206 = target: T6, HLA-A*0206 (human); test: as above
T6 construct: purified HLA class I molecule

HLA-A*0201 [6] = target: T7, HLA-A*0201 (human); test: as above
T7 construct: also called HLA-A2.1

HLA-A*0202 = target: T8, HLA-A*0202 (human); test: as above
T8 construct: purified HLA class I molecule

HLA-A*0203 = target: T9, HLA-A*0203 (human); test: as above
T9 construct: purified HLA class I molecule

HLA-DRB1*1501 [7] = target: T10, HLA-DRB1*1501 (human); test: inhibition of 125I probe peptide binding to purified HLA-DR, gel filtration
T10 construct: Purified HLA molecule; also called DR2w2β1

HLA-DRB1*0101 [8] = target: T11, HLA-DRB1*0101 (human); test: as above
T11 construct: Purified HLA molecule; also called DR1

HLA-DRB1*0401 [9] = target: T12, HLA-DRB1*0401 (human); test: competition with 125I probe peptide, purified HLA
T12 construct: also called DR4w4

HLA-DRB1*0301 [10] = target: T13, HLA-DRB1*0301 (human); test: competition with 125I-labeled standard peptide, purified HLA-DR, gel filtration
T13 construct: also called DR3

HLA-DRB1*1501 [11] = target: T14, HLA-DRB1*1501 (human); test: competition with 125I-labelled standard peptide, purified HLA-DR, gel filtration
T14 construct: purified MHC class II molecule; also called DR2w2β1

HLA-DRB1*0802 [12] = target: T15, HLA-DRB1*0802 (human); test: as above
T15 construct: purified MHC class II molecule; also called DR8w2

HLA-DRB1*0401 [13] = target: T16, HLA-DRB1*0401 (human); test: as above
T16 construct: purified MHC class II molecule; also called DR4w4

HLA-DRB1*0101 [14] = target: T17, HLA-DRB1*0101 (human); test: as above
T17 construct: purified MHC class II molecule; also called DR1

HLA-DRB5*0101 [15] = target: T18, HLA-DRB5*0101 (human); test: as above
T18 construct: purified MHC class II molecule; also called DR2w2β2

HLA-DRB1*1302 [16] = target: T19, HLA-DRB1*1302 (human); test: as above
T19 construct: purified MHC class II molecule; also called DR6w19

HLA-DRB1*0101 [17] = target: T20, HLA-DRB1*0101 (human); test: competition with 125I probe peptide, purified HLA
T20 construct: also called DR1

HLA-DRB1*0701 [18] = target: T21, HLA-DRB1*0701 (human); test: inhibition of 125I probe peptide binding to purified HLA-DR, gel filtration
T21 construct: Purified HLA molecule; also called DR7

HLA-DRB1*0401 [19] = target: T22, HLA-DRB1*0401 (human); test: as above
T22 construct: Purified HLA molecule; also called DR4w4

HLA-DRB5*0101 [20] = target: T23, HLA-DRB5*0101 (human); test: as above
T23 construct: Purified HLA molecule; also called DR2w2β2

HLA-DRB1*0802 [21] = target: T24, HLA-DRB1*0802 (human); test: as above
T24 construct: Purified HLA molecule; also called DR8w2

HLA-DRB1*1302 [22] = target: T25, HLA-DRB1*1302 (human); test: as above
T25 construct: Purified HLA molecule; also called DR6w19

HLA-DR4w4 (DRB1*0401) = target: T26, HLA-DR4w4 (DRB1*0401) (human); test: competition binding assay, purified HLA, 125I-labelled probe peptide, gel filtration
T26 construct: purified HLA class II molecule

HLA-DR7 (DRB1*0701) = target: T27, HLA-DR7 (DRB1*0701) (human); test: as above
T27 construct: purified HLA class II molecule

HLA-DR1 (DRB1*0101) = target: T28, HLA-DR1 (DRB1*0101) (human); test: as above
T28 construct: purified HLA class II molecule

HLA-DRB1*0301 [23] = target: T2, HLA-DRB1*0301; test: competition with 125I-labelled standard peptide, purified HLA-DR, gel filtration; remark: listed apart in the source
[24] = target: HLA-A*0206 (purified HLA class I molecule) (human); test: competition with 125I-labelled standard peptide for purified HLA, gel filtration
[25] = target: HLA-A*6802 (purified HLA class I molecule) (human); test: as above
[26] = target: HLA-A*0203 (purified HLA class I molecule) (human); test: as above
[27] = target: T29, HLA-A*0201 (purified HLA class I molecule) (human); test: as above
T29 construct: also called HLA-A2.1

[28] = target: HLA-A*0202 (purified HLA class I molecule) (human); test: as above
HLA-DRB1*0101 [29] = target: T11, HLA-DRB1*0101; test: inhibition of 125I probe peptide binding to purified HLA-DR, gel filtration; remark: listed apart in the source

B1: Her2/neu.997.V2 (peptide)
peptide: AVPLDSTFYR
HLA-A*3101
  IC50: 30000 nM
HLA-A*1101
  IC50: 88 nM
HLA-A*6801
  IC50: 73 nM
HLA-A*0301 [1]
  IC50: > 110000 nM

B2: Her2/neU.997.V2K10 (peptide)
peptide: AVPLDSTFYK
HLA-A*3301
  IC50: 22300 nM
HLA-A*3101
  IC50: 1500 nM
HLA-A*1101
  IC50: 33 nM
HLA-A*6801
  IC50: 229 nM
HLA-A*0301 [1]
  IC50: 550 nM

B3: HER2/neu peptide, position 781, 10 amino acids (peptide)
peptide: YVSRLLGICL
notes: Synthetic peptide
HLA-A*0201 [2]
  relative binding ratio: 0.0004 ratio (IC50 of standard peptide / IC50 of test peptide)

B4: Her2/neu.70 (peptide)
peptide: SLSFLQDIQEVQGYV
HLA-DRB1*0301 [3]
  IC50: 5770 nM

B5: Her2/neu.943 (peptide)
peptide: QPPICTIDVYMIMVK
HLA-DRB1*0701 [4]
  IC50: 250 nM

B6: HER2/neu peptide, position 1162, 10 amino acids (peptide)
peptide: PAGATLERPK
notes: Synthetic peptide; also called Her2/neu.1162 (10-mer)
HLA-A*0301 [5]
  relative binding ratio (IC50 of standard peptide / IC50 of test peptide): -0.0002

B7: Her2/neu.653.L2V9 (peptide)
peptide: SLISAVVGV
notes: analog of Her2/neu.653
HLA-A*6802
  IC50: 110 nM
HLA-A*0206
  IC50: 20 nM
HLA-A*0201 [6]
  IC50: 7.1 nM
HLA-A*0202
  IC50: 10 nM
HLA-A*0203
  IC50: 16 nM

B8: Her2/neu.883 (peptide)
peptide: KVPIKWMALESILRR
notes: Synthetic peptide
HLA-DRB1*1501 [7]
  IC50: 3.4 nM
HLA-DRB1*0101 [8]
  IC50: 2.3 nM

B9: Her2/neu.765 (peptide)
peptide: KEILDEAYVMAGVGS
HLA-DRB1*0401 [9]
  IC50: 6160 nM

B10: Her2/neu.153.V9 (peptide)
peptide: VLIQRNPQV
notes: analog of Her2/neu.153
HLA-A*0206
  IC50: 385 nM
HLA-A*0201 [6]
  IC50: 55 nM
HLA-A*0202
  IC50: 768 nM
HLA-A*0203
  IC50: 135 nM

B11: Her2/neu.1028 (peptide)
peptide: QGFFCPDPAPGAGGM
HLA-DRB1*0401 [9]
  IC50: 1960 nM

B12: HER2/neu DR supermotif exemplary peptide KGPLPTDCCHEQCAA (position 228) (peptide)
peptide: KGPLPTDCCHEQCAA
notes: synthetic 15-mer; also called Her2/neu.228
HLA-DRB1*0301 [10]
  relative binding ratio: -0.0027 ratio (standard IC50 / test IC50)

B13: Her2/neu.952.L2V10 (peptide)
peptide: YLIMVKCWMV
notes: analog of Her2/neu.952 (10-mer)
HLA-A*6802
  IC50: 84 nM
HLA-A*0206
  IC50: 18 nM
HLA-A*0201 [6]
  IC50: 13 nM
HLA-A*0202
  IC50: 56 nM

B14: Her2/neu.769 (peptide)
peptide: DEAYVMAGVGSPYVS
HLA-DRB1*1501 [11]
  IC50: 3140 nM
HLA-DRB1*0802 [12]
  IC50: 860 nM
HLA-DRB1*0401 [13]
  IC50: 196 nM
HLA-DRB1*0101 [14]
  IC50: 100 nM
HLA-DRB5*0101 [15]
  IC50: 833 nM
HLA-DRB1*1302 [16]
  IC50: 1750 nM

B15: HER2/neu DR supermotif exemplary peptide PSGVKPDLSYMPIWK (position 601) (peptide)
peptide: PSGVKPDLSYMPIWK
notes: synthetic 15-mer; also called Her2/neu.601
HLA-DRB1*0301 [10]
  relative binding ratio: -0.0027 ratio (standard IC50 / test IC50)

B16: Her2/neu.105 (peptide)
peptide: TQLFEDNYALAVLDN
HLA-DRB1*0701 [4]
  IC50: 1560 nM
HLA-DRB1*0101 [17]
  IC50: 94 nM

B17: Her2/neu.369.T2V9 (peptide)
peptide: KTFGSLAFV
notes: analog of Her2/neu.369
HLA-A*6802
  IC50: 17 nM
HLA-A*0201 [6]
  IC50: 35 nM
HLA-A*0202
  IC50: 13 nM
HLA-A*0203
  IC50: 1010 nM

B18: Her2/neu.1005 (peptide)
peptide: YRSLLEDDDMGDLVD
HLA-DRB1*0301 [3]
  IC50: 4760 nM

B19: Her2/neu.769 (peptide)
peptide: DEAYVMAGVGSPYVS
HLA-DRB1*0401 [9]
  IC50: 196 nM
HLA-DRB1*0101 [17]
  IC50: 100 nM

B20: Her2/neu.711 (peptide)
peptide: QMRILKETELRKVKV
HLA-DRB5*0101 [15]
  IC50: 34 nM

B21: Her2/neu.943 (peptide)
peptide: QPPICTIDVYMIMVK
notes: Synthetic peptide
HLA-DRB1*0701 [18]
  IC50: 250 nM

B22: Her2/neu.852.R9 (peptide)
peptide: LVKSPNHVR
HLA-A*3301
  IC50: 107 nM
HLA-A*3101
  IC50: 198 nM
HLA-A*6801
  IC50: 50 nM
HLA-A*0301 [1]
  IC50: 7860 nM

B23: HER2/neu peptide, position 83, 9 amino acids (peptide)
peptide: YVLIAHNQV
notes: Synthetic peptide
HLA-A*0201 [2]
  relative binding ratio: 0.0005 ratio (IC50 of standard peptide / IC50 of test peptide)

B24: Her2/neu.769 (peptide)
peptide: DEAYVMAGVGSPYVS
notes: Synthetic peptide
HLA-DRB1*0401 [19]
  IC50: 196 nM
HLA-DRB5*0101 [20]
  IC50: 833 nM
HLA-DRB1*1501 [7]
  IC50: 3140 nM
HLA-DRB1*0802 [21]
  IC50: 860 nM
HLA-DRB1*1302 [22]
  IC50: 1750 nM
HLA-DRB1*0101 [8]
  IC50: 100 nM

B25: HER2/neu peptide QGFFCPDPAPGAGGM (position 1028) (peptide)
peptide: QGFFCPDPAPGAGGM
notes: also called Her2/neu.1028
HLA-DR4w4 (DRB1*0401)
  relative binding ratio: 0.023 ratio to standard peptide
HLA-DR7 (DRB1*0701)
  relative binding ratio: -0.0011 ratio to standard peptide
HLA-DR1 (DRB1*0101)
  relative binding ratio: -0.0005 ratio to standard peptide

B26: Her2/neu.867 (peptide)
peptide: ARLLDIDETEYHADG
HLA-DRB1*0301 [3]
  IC50: 968 nM
HLA-DRB1*0301 [23]
  IC50: 968 nM

B27: HER2/neu peptide, position 799, 9 amino acids (peptide)
peptide: QLMPYGCLL
notes: Synthetic peptide; also called Her2/neu.799
[24]
  relative binding ratio (IC50 of standard peptide / IC50 of test peptide): 0.0052 ratio
[25]
  relative binding ratio (IC50 of standard peptide / IC50 of test peptide): 0.0031 ratio
[26]
  relative binding ratio (IC50 of standard peptide / IC50 of test peptide): 0.088 ratio
[27]
  relative binding ratio (IC50 of standard peptide / IC50 of test peptide): 0.023 ratio
[28]
  relative binding ratio (IC50 of standard peptide / IC50 of test peptide): 0.0044 ratio

B28: Her2/neu.1142 (peptide)
peptide: QPDVRPQPPSPREGP
notes: Synthetic peptide
HLA-DRB1*0101 [29]
  IC50: 7140 nM

B29: HER2/neu peptide, position 1173, 10 amino acids (peptide)
peptide: LSPGKNGVVK
notes: Synthetic peptide; also called Her2/neu.1173 (10-mer)
HLA-A*0301 [5]
  relative binding ratio (IC50 of standard peptide / IC50 of test peptide): -0.0002
